Data reported in article PMC3203869, “Altered Antibiotic Transport in OmpC Mutants Isolated from a Series of Clinical Strains of Multi-Drug Resistant E. coli” (PLoS ONE, 2011).

Assays:
Assay in all cases: crystal structure; purified OmpC in detergent (0.6% HESO + 0.1% OPOE, or 1% βOG), crystals grown at 20°C or room temperature; trimer in the crystal
[1] = biological target: OmpC26 (E. coli (clinical isolate)) (UniProt P06996)
[2] = biological target: OmpC20 (E. coli (clinical isolate)) (UniProt P06996)
[3] = biological target: the molecule itself

## OmpC26 (from UniProt P06996 22-367) (natural protein)
[1]
  stoichiometry N: 3

## OmpC20 (from UniProt P06996 22-367) (natural protein)
[2]
  stoichiometry N: 3

B1: OmpCO6 (natural protein)
chain: AEVYNKDGNKLDLYGKVDGLHYFSDDKSVDGDQTYMRLGFKGETQVTDQLTGYGQWEYQIQGNAPESENNSWTRVAFAGLKFQDIGSFDYGRNYGVVYDVTSWTDVLPEFGGDTYGSDNFMQQRGNGFATYRNTDFFGLVDGLNFAVQYQGQNGSVSGENDPDFTGHGITNNGRKALRQNGDGVGGSITYDYEGFGVGAAVSSSKRTWDQNNTGLIGTGDRAETYTGGLKYDANNIYLAAQYTQTYNATRVGSLGWANKAQNFEAVAQYQFDFGLRPSVAYLQSKGKNLGVVAGRNYDDEDILKYVDVGATYYFNKNMSTYVDYKINLLDDNQFTRAAGINTDDIVALGLVYQF
notes: gene amplified by PCR and expressed from pHSG575; Trimer in the crystal; also called OmpC from uropathogenic E. coli O6:H1; source: E. coli strain lacking porins, plasmid pHSG575; purified (detergent extraction, POROS-HQ anion exchange, Superdex 200 gel filtration)
[3]
  stoichiometry N: 3
